Assay results reported in patent publication US20200347131A1 (SICHUAN KELUN BIOTECH BIOPHARMACEUTICAL, published 2020).

T1: human LAG-3 (His tag) (human, UniProt P18627 23-450, limits assumed)
T1 construct: also called LAG-3-His antigen; not shown: His tag
T1 sequence (looked up): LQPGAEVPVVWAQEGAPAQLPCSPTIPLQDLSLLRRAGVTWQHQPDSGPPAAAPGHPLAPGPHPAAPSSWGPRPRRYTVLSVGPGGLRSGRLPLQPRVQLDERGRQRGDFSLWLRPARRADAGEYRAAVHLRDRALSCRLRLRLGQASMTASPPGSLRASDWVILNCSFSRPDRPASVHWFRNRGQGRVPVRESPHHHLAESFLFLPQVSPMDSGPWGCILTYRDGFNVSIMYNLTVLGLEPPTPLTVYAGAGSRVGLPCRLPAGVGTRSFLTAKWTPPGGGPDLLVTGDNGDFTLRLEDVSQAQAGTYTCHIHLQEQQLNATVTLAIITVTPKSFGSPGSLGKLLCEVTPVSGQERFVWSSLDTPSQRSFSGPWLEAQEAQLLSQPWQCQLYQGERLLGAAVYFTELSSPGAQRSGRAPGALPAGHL

T2: human LAG-3 (Uniport entry No. P18627) (human, UniProt P18627 23-450, limits assumed)
T2 sequence (looked up): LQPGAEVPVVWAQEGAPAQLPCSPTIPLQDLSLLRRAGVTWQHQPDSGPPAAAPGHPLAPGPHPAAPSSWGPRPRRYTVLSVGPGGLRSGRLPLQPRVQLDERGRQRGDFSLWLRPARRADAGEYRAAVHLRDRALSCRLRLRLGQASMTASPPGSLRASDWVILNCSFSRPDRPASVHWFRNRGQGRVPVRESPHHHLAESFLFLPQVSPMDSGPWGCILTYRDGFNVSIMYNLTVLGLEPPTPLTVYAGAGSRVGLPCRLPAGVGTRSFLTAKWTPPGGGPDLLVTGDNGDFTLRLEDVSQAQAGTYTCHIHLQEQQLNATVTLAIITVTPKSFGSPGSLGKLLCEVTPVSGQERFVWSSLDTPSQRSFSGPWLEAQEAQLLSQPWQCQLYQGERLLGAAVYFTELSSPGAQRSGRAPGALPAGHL

T3: human LAG-3 on CHO cells (CHO-hLAG-3) (human, UniProt P18627 23-525)
T3 construct: whole, on cells; Cells prepared by Kelun Biotech Co., Ltd; also called CHO cells expressing human LAG-3
T3 sequence (looked up): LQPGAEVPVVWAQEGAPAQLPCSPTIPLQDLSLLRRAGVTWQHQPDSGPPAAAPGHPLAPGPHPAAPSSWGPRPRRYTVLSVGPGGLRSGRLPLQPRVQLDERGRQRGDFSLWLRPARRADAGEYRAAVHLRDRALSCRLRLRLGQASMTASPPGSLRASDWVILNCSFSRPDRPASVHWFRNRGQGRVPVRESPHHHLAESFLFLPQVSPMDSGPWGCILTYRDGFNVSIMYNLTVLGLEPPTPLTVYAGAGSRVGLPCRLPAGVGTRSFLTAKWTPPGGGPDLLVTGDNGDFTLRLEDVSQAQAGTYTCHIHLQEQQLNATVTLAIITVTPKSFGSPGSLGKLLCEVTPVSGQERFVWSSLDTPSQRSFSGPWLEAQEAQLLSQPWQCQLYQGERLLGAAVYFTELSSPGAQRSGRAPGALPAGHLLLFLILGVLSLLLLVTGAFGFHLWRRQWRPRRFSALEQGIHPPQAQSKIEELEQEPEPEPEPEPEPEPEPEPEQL


Tests used:
[1] = target: T1, human LAG-3 (His tag); experiment: BLI (ForteBio Octet), LAG-3 His on Ni-NTA sensor
Procedure: (§1) The binding affinity constant of the purified murine monoclonal antibody #27 to the antigen was determined by Bio-Layer Interferometry (BLI) using the instrument of a PALL company's ForteBio Octet RED & QK system.

[2] = target: T1, human LAG-3 (His tag); experiment: BLI (ForteBio Octet), LAG-3 His on Ni-NTA sensor, antibody 3.125-100 nM
Procedure: as §1

[3] = target: T1, human LAG-3 (His tag); experiment: FACS competition, antibody blocks the binding of LAG-3-His (12 ug/mL) to MHC II positive A431 cells
Procedure: Human epidermal cancer cell line A431 (purchased from Nanjing Cobioer Company) is an MHC II positive expression cell line. […] The method was also used to evaluate the biological activity of relevant antibodies.
A431 cells were trypsinized, resuspended in PBS, and the cell density was adjusted to 5×10⁶ cells/mL, 100 μL/well. […] The cells were washed twice with pre-cooled PBS, resuspended in 100 µL of solution containing […] of PE anti-His, and incubated at 4° C. for 0.5 hours, washed twice with pre-cooled PBS, and resuspended in PBS.

[4] = target: T2, human LAG-3 (Uniport entry No. P18627); experiment: indirect ELISA on plate-coated human LAG-3 (0.1 ug/ml), HRP goat anti-mouse IgG detection
[5] = target: T4, LAG-3-Tag1 of the LAG-3/MHC II kit (CISBIO, ADK000CLAPEF) (human, UniProt P18627 23-450); experiment: HTRF competition, antibody blocks the binding of LAG-3-Tag1 to MHC II-Tag2 (CISBIO kit)
T4 construct: Kit reagent; The construct is not described
Procedure: Anti-Tag1-Eu³⁺ is a donor of HTRF (Homogeneous Time-Resolved Fluorescence), and anti-Tag2-XL665 acts as a receptor for HTRF. When the two molecules are close to each other, the fluorescence energy is transferred from the donor to the acceptor, accompanied by appearance of a fluorescent signal at 650 nm.
After mixing the anti-Tag1-Eu³⁺ and anti-Tag2-XL665 in equal volumes, each well was added with 10 μl, mixed well, sealed with a film, and incubated for 1 hour at room temperature.

[6] = target: T3, human LAG-3 on CHO cells (CHO-hLAG-3); experiment: flow cytometry, FITC-labelled antibody on CHO-hLAG-3 cells
Procedure: (§2) 5×10⁵ cells per tube of CHO-cynoLAG-3 and CHO-hLAG-3 cells were taken respectively. […] The dilutions were mixed with cells at a ratio of 1:1, and incubated for 30 minutes at room temperature, followed by washing 3 times with pre-cooled PBS and detection by flow cytometry (Benckman, model CytoFlex). The signal values were input into GraphPad Prism to calculate the EC₅₀ values.

[7] = target: T5, cynomolgus monkey LAG-3 on CHO cells (CHO-cynoLAG-3) (cynomolgus monkey); experiment: flow cytometry, FITC-labelled antibody on CHO-cynoLAG-3 cells
T5 construct: whole, on cells; Cells prepared by Kelun Biotech Co., Ltd
Procedure: as §2

Binder	Kd [1]	koff [1]	kon [1]	further results
human-mouse chimeric antibody AB12T2 (antibody, human IgG4 S228P, kappa, V domains shown) VH: DVHLQESGPDLVKPSQSLSLTCTVTGYSITSFYSWHWIRQFPGNKLEWMGCIQYSGDTDSNPSLKSRISITRDTSENQLFLHLNSVTTEDTATYYCARSPYDSDPYYVMDYWGQGTSVTVSS VL: DIVMSQSPSSLAVSVGEKITMTCKSSQSLLYSGNQKNYLAWYQQKPGQSPTLLIYWASTRDSGVPDRLTGSGSGTDFTLTISSVKAEDLAVYYCQQYYAYPYTFGGGTKLETKR	0.574 nM	4.97e-05 s⁻¹	100000 M⁻¹ s⁻¹	–
humanized antibody AB12T3 (antibody, human IgG4, kappa, V domains shown) VH: DVQLQESGPGLVKPSQTLSLTCTVTGYSITSFYSWHWIRQHPGKGLEWMGCIQYSGDTDSNPSLKSRITITRDTSENQLSLKLSSVTAADTAVYYCARSPYDSDPYYVMDYWGQGTLVTVSS VL: DIVMSQSPDSLAVSLGERATITCKSSQSLLYSGNQKNYLAWYQQKPGQPPTLLIYWASTRDSGVPDRLTGSGSGTDFTLTISSLQAEDVAVYYCQQYYAYPYTFGQGTKLEIKR	0.546 nM	5.17e-05 s⁻¹	94700 M⁻¹ s⁻¹	IC50 [5]: 9.45 µg/mL
humanized antibody AB12T5 (antibody, human IgG4, kappa, V domains shown) VH: QVQLQESGPGLVKPSQTLSLTCTVSGYSITSFYSWHWIRQHPGKGLEWIGCIQYSGDTDSNPSLKSRVTISVDTSKNQFSLKLSSVTAADTAVYYCARSPYDSDPYYVMDYWGQGTSVTVSS VL: DIVMTQSPDSLAVSLGERATITCKSSQSLLYSGNQKNYLAWYQQKPGQPPKLLIYWASTRDSGVPDRFSGSGSGTDFTLTISSLQAEDVAVYYCQQYYAYPYTFGGGTKLEIKR	0.365 nM	2.28e-05 s⁻¹	92400 M⁻¹ s⁻¹	–
reference antibody AB12T1 (BMS 986016) (antibody, human IgG4 S228P, kappa, V domains shown, also called positive control antibody AB; FITC-AB12T1) VH: QVQLQQWGAGLLKPSETLSLTCAVYGGSFSDYYWNWIRQPPGKGLEWIGEINHRGSTNSNPSLKSRVTLSLDTSKNQFSLKLRSVTAADTAVYYCAFGYSDYEYNWFDPWGQGTLVTVSS VL: EIVLTQSPATLSLSPGERATLSCRASQSISSYLAWYQQKPGQAPRLLIYDASNRATGIPARFSGSGSGTDFTLTISSLEPEDFAVYYCQQRSNWPLTFGQGTNLEIKR	–	–	–	EC50 [7]: 793 nM

More lines, in order of falling Kd [1], values ahead:

Kd [1]	koff [1]	kon [1]	Binder	further results
0.378 nM	–	–	humanized antibody AB12T6 (antibody, human IgG4, kappa, V domains shown) VH: DVQLQESGPGLVKPSQSLSLTCTVSGYSITSFYSWHWIRQHPGKGLEWMGCIQYSGDTYYNPSLKSRVTISVDTSKNQFSLKLSSVTAADTAVYYCARSPYDSDPYYVMDYWGQGTLVTVSS VL: DIVMSQSPDSLAVSLGERATITCKSSQSLLYSGNQKNYLAWYQQKPGQPPKLLIYWASTRDSGVPDRFSGSGSGTDFTLTISSLQAEDVAVYYCQQYYAYPYTFGGGTKLETKR	–
0.359 nM	2.36e-05 s⁻¹	65800 M⁻¹ s⁻¹	humanized antibody AB12T7 (antibody, human IgG4, kappa, V domains shown) VH: QVQLQESGPGLVKPSQTLSLTCTVSGYSITSFYSWSWIRQHPGKGLEWIGYIQYSGDTYYNPSLKSRVTISVDTSKNQFSLKLSSVTAADTAVYYCARSPYDSDPYYVMDYWGQGTLVTVSS VL: not shown	–
0.319 nM	3.86e-05 s⁻¹	121000 M⁻¹ s⁻¹	murine monoclonal antibody #27 (antibody, IgG4, V domains shown, Purified from hybridoma supernatant; also called murine antibody #27; monoclonal antibody produced by hybridoma cell line #27 (CCTCC NO.C2017183)) VH: DVHLQESGPDLVKPSQSLSLTCTVTGYSITSFYSWHWIRQFPGNKLEWMGCIQYSGDTDSNPSLKSRISITRDTSENQLFLHLNSVTTEDTATYYCARSPYDSDPYYVMDYWGQGTSVTVSS VL: DIVMSQSPSSLAVSVGEKITMTCKSSQSLLYSGNQKNYLAWYQQKPGQSPTLLIYWASTRDSGVPDRLTGSGSGTDFTLTISSVKAEDLAVYYCQQYYAYPYTFGGGTKLETK	Kd [2]: 0.319 nM; koff [2]: 3.86e-05 s⁻¹; kon [2]: 121000 M⁻¹ s⁻¹; IC50 [3]: 10.4 nM; Maximum inhibition % [3]: 84.2%; EC50 (read off the curve) [4]: ~0.05 µg/mL
0.258 nM	3.09e-05 s⁻¹	120000 M⁻¹ s⁻¹	humanized antibody AB12T4 (antibody, human IgG4 S228P, kappa, V domains shown, also called FITC-AB12T4) VH: DVQLQESGPGLVKPSQTLSLTCTVTGYSITSFYSWHWIRQFPGKGLEWMGCIQYSGDTDSNPSLKSRITITRDTSENQLFLKLSSVTAADTATYYCARSPYDSDPYYVMDYWGQGTLVTVSS VL: DIVMSQSPDSLAVSLGERITMTCKSSQSLLYSGNQKNYLAWYQQKPGQSPTLLIYWASTRDSGVPDRLTGSGSGTDFTLTISSVQAEDVAVYYCQQYYAYPYTFGQGTKLEIKR	IC50 [5]: 6.7 µg/mL; EC50 [6]: 12.8 nM; EC50 [7]: 803 nM; IC50 [3]: 12.7 nM; Maximum inhibition % [3]: 89.3%
